Laboratory results: IntAct's records for PubMed 25860027

B1: Ras-related protein Rab-8A (Canis familiaris (dog)), P61007 (parent)
chain: MAKTYDYLFKLLLIGDSGVGKTCVLFRFSEDAFNSTFISTIGIDFKIRTIELDGKRIKLQIWDTAGQERFRTITTAYYRGAMGIMLVYDITNEKSFDNIRNWIRNIEEHASADVEKMILGNKCDVNDKRQVSKERGEKLALDYGIKFMETSAKANINVENAFFTLARDIKAKMDKKLEGNSPQGSNQGVKITPDQQKRSSFFRCVLL
partner: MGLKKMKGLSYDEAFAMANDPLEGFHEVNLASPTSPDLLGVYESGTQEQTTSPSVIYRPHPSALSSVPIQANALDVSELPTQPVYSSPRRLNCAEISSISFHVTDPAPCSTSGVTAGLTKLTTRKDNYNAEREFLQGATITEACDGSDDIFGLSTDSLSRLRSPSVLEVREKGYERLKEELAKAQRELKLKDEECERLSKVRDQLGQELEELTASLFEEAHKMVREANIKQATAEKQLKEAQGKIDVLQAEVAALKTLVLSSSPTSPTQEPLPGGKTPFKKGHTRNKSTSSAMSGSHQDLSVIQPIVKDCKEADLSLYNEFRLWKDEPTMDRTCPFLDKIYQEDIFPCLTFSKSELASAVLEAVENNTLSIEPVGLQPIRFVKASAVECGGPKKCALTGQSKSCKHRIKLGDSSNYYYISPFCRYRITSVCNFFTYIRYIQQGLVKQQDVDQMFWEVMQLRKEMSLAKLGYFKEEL
B2: Ras-related protein Rab-8A (Canis familiaris (dog)), P61007 (parent)
chain: B1 chain
partner: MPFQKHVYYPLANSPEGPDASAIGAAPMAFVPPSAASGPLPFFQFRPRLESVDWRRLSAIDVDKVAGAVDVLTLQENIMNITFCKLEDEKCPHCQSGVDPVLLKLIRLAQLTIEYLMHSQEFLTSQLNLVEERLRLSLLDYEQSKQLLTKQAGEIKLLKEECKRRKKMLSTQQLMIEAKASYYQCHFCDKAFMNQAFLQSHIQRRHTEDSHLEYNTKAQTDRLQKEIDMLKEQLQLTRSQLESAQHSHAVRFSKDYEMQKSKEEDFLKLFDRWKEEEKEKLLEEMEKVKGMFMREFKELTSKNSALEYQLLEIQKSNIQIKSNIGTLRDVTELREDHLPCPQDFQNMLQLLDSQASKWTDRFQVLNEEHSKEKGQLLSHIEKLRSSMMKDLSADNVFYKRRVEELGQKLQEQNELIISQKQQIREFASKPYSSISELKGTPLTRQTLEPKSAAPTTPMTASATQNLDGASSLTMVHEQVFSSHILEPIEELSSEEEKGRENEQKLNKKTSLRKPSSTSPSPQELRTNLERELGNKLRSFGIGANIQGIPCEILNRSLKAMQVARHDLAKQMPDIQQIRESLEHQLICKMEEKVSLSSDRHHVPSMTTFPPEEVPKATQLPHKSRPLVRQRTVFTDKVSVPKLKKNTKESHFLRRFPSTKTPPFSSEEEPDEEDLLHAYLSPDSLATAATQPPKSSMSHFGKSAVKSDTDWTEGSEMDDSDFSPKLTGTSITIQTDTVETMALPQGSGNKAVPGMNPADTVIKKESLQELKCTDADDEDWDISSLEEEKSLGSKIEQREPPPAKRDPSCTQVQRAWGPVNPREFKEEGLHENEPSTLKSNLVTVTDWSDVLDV

Variants of: B1
Conditions: with rab3i_human RAB3IP

| Variant | effect of a mutation on the interaction |
| --- | --- |
| T22N | increasing interaction strength |

Variants of: B2
Conditions: with Dzip1, Q8BMD2-1

| Variant | effect of a mutation on the interaction |
| --- | --- |
| Q67L | disrupting interaction strength |
| T22N | increasing interaction strength |
